Reference: article PMC7955032, “The amyloid structure of mouse RIPK3 (receptor interacting protein kinase 3) in cell necroptosis” (Nature Communications, 2021)
Positions count from the first letter of the chain named. In names and notes the source's numbering stands.

B1: mouse RIPK3 409-486 Q449D (domain or fragment, UniProt Q9QZL0 409-486, looked up)
chain: GPHPQRNQGDGRHGTPWYPWTPPNPMTGPPALVFNNCSEVDIGNYNSLVAPPRTTASSSAKYDQAQFGRGRGWQPFHK
notes: RIPK3, mouse, residues 409-486, same construction as the SSNMR sample, with Q449D; Same construct as m1 with one substitution; source: E. coli Transetta (DE3), purified (Ni-NTA, reverse phase HPLC)
B2: mouse RIPK3 409-486 L456D (domain or fragment, UniProt Q9QZL0 409-486, looked up)
chain: B1 chain with D41Q, L48D
notes: RIPK3, mouse, residues 409-486, same construction as the SSNMR sample, with L456D; Same construct as m1 with one substitution; source: E. coli Transetta (DE3), purified (Ni-NTA, reverse phase HPLC)
B3: mouse RIPK3 409-486 F442D (domain or fragment, UniProt Q9QZL0 409-486, looked up)
chain: B1 chain with F34D, D41Q
notes: RIPK3, mouse, residues 409-486, same construction as the SSNMR sample, with F442D; Same construct as m1 with one substitution; source: E. coli Transetta (DE3), purified (Ni-NTA, reverse phase HPLC)

How the values were obtained:
[1] = molecular target: the molecule itself; assay: solid-state NMR; MAS SSNMR of isotope-labelled fibrils, 700 MHz, 303 K, 15 kHz; structure calculated with Xplor-NIH for 5 copies of residues 441-460; intermolecular contacts from [2-13C]-glycerol labelled sample and from a 1:1 mix of 15N- and 13C-labelled protein
[2] = molecular target: the molecule itself; assay: thioflavin T fluorescence of fibril growth; 2 mM protein in 6 M GudHCl diluted to 20 µM in 10 mM PB buffer pH 7.4, 50 µM ThT, room temperature, about 4 h

Protein	binding result [1]	binding result [2]
B1	binds	–
B2	binds	–
B3	–	binds
